B1: murine GPR182 (mGPR182), expressed from mGPR182 T2A GFP in 300.19 pre-B cells (receptor, mouse, UniProt P43142 1-398, looked up)
chain: MSVIPSPRPVSTLEPDNDFRDIHNWTELLHLFNQTFTDCHIEFNENTKHVVLFVFYLAIFVVGLVENVLVICVNCRRSGRVGMLNLYILNMAIADLGIILSLPVWMLEVMLEYTWLWGSFSCRFIHYFYLVNMYSSIFFLTCLSIDRYVTLTNTSPSWQRHQHRIRRAVCAGVWVLSAIIPLPEVVHIQLLDGSEPMCLFLAPFETYSAWALAVALSATILGFLLPFLLIAVFNILTACRLRRQRQTESRRHCLLMWAYIVVFAICWLPYQVTMLLLTLHGTHIFLHCHLVNLLYFFYEIIDCFSMLHCVANPILYNFLSPSFRGRLLSLVVRYLPKEQARAAGGRASSSSSTQHSIIITKEGSLPAAADLHTHPIRNVQASSPPPNTSPTLCNSVAS
notes: GPR182, mouse; Expressed fused via a self-cleaving T2A peptide to GFP (backbone pME-Cas9-T2A-GFP, Addgene 63155); receptor and GFP are split post-translationally; also called ACKR5 (proposed); source: 300.19 mouse pre-B cells, stably transfected, on cells

Columns and labels:
Settings in all cases: one partner purified
[1] = target: B1; assay: flow cytometry on cells; competition scavenging at 37°C: 300.19 cells expressing mGPR182 or hGPR182 with 3 nM fluorescent chemokine and increasing concentrations of its unlabeled counterpart, 45 min
[2] = target: T1, human GPR182 (hGPR182), expressed from hGPR182 T2A GFP in 300.19 pre-B cells (human, UniProt O15218 1-404); assay: as above
T1 construct: GPR182, human; Expressed fused via a self-cleaving T2A peptide to GFP (backbone pME-Cas9-T2A-GFP, Addgene 63155); split post-translationally; also called ACKR5 (proposed); source: 300.19 mouse pre-B cells, stably transfected, on cells

[3] = target: B1; assay: flow cytometry on cells; competition binding at 4°C: 300.19 cells expressing mGPR182 or hGPR182 with 3 nM fluorescent chemokine and increasing concentrations of its unlabeled counterpart, 45 min
[4] = target: T1, human GPR182 (hGPR182), expressed from …; assay: as above
hCXCL12, unlabeled = target: T2, hCXCL12, unlabeled (human, UniProt P48061 22-93); assay: as above
T2 construct: CXCL12, human; also called X12

[5] = target: B1; assay: flow cytometry on cells; direct binding: 300.19 cells expressing GPR182 T2A GFP with increasing concentrations of fluorescently labelled chemokine, 45 min; temperature not stated for this experiment

| Kd (competition scavenging) [1] [nM] | Kd (competition scavenging) [2] [nM] | Kd [3] [nM] | Kd [4] [nM] | Kd (hCXCL12, unlabeled) [nM] | Kd [5] [nM] | Binder |
| --- | --- | --- | --- | --- | --- | --- |
| 13 | 9 | 20 | 20 | – | – | hCXCL13, unlabeled (ligand, human, UniProt O43927 23-109, looked up, CXCL13, human) VLEVYYTSLRCRCVQESSVFIPRRFIDRIQILPRGNGCPRKEIIVWKKNKSIVCVDPQAEWIQRMMEVLRKRSSSTLPVPVFKRKIP |
| – | – | – | – | 120 | – | B1 |
| – | – | 120 | – | – | – | mCCL20, unlabeled (ligand, mouse, UniProt O89093 28-97, looked up, CCL20, mouse) ASNYDCCLSYIQTPLPSRAIVGFTRQMADEACDINAIIFHTKKRKSVCADPKQNWVKRAVNLLSLRVKKM |
| 250 | – | 180 | – | – | – | mCCL19, unlabeled (ligand, mouse, UniProt O70460 26-108, looked up, CCL19, mouse) GANDAEDCCLSVTQRPIPGNIVKAFRYLLNEDGCRVPAVVFTTLRGYQLCAPPDQPWVDRIIRRLKKSSAKNKGNSTRRSPVS |
| – | – | – | – | – | ~8.5 | mCCL28, fluorescently labelled (ligand, mouse, UniProt Q9JIL2 17-130, looked up, fluorescent label (AF647 or Dy649), site not stated, CCL28, mouse; also called CCL28-AF647; mCCL28-AF647) FQTSEAILPMASSCCTEVSHHVSGRLLERVSSCSIQRADGDCDLAAVILHVKRRRICISPHNRTLKQWMRASEVKKNGRENVCSGKKQPSRKDRKGHTTRKHRTRGTHRHEASR |
| 14 | 52 | 10 | 28 | – | – | mCCL28, unlabeled (ligand, mouse, UniProt Q9JIL2 17-130, looked up, CCL28, mouse) FQTSEAILPMASSCCTEVSHHVSGRLLERVSSCSIQRADGDCDLAAVILHVKRRRICISPHNRTLKQWMRASEVKKNGRENVCSGKKQPSRKDRKGHTTRKHRTRGTHRHEASR |
| – | 75 | – | 55 | – | – | hCCL19, unlabeled (ligand, human, UniProt Q99731 22-98, looked up, CCL19, human) GTNDAEDCCLSVTQKPIPGYIVRNFHYLLIKDGCRVPAVVFTTLRGRQLCAPPDQPWVERIIQRLQRTSAKMKRRSS |

From article PMC10405735 (Frontiers in Immunology, 2023)
